Source: PMC5397206

Target: Prp43 (yeast) (UniProt P53131)
Sequence of UniProt P53131 (P53131 whole entry): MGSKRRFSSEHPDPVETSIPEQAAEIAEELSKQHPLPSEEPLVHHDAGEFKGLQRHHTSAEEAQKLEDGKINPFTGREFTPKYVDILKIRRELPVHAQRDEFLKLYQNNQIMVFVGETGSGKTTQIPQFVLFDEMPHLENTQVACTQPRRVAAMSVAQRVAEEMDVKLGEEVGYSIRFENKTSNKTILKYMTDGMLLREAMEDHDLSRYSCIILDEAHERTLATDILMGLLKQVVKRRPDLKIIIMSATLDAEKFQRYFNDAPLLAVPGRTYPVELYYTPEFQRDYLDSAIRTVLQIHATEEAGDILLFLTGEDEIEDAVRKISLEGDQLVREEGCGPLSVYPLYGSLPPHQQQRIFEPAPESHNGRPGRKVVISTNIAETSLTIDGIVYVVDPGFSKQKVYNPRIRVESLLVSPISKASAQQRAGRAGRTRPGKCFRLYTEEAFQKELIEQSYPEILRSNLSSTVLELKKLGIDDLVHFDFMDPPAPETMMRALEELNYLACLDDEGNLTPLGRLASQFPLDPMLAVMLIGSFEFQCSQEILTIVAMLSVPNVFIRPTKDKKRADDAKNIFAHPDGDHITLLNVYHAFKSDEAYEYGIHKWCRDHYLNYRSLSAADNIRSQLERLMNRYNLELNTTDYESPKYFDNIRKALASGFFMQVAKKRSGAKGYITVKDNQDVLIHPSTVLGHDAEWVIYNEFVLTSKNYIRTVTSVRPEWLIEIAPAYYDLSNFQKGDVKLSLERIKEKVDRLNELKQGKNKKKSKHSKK

B1: Pfa1 full-length (Pfa1FL) (natural protein)
chain: MAKRHSHYQGSRRRHARGSNSKKAGRGNAKGIQGRKIKKKPTPTNSWHNSSIPLGEGDLDDVGADFNPGRAFISPKTIEDYYFGRDAKSRSMKMGGLRPGNRYDSSTDLQAGRAAFRKRPMQFVKAKEVYDPSHNMIQKLRAKNETKNSEEIVEREADVFEEPGKMTSDVEYINNEDSENEDDDSQNSPSTDHSLSSNESKVEDGDLFFVDEEAQQSPDLTKIKRVCIEEIARPREVAIEFDPILTIGKVELSVSEGNESKEISVDVPNKGNKTYHPFAGYISNVLHGMHTSDSDNDELDYEIETENNSEPLYESSASSEVDQGFNYVGQRHNSRADNNLLPSPSPQLTEDIKCLSINGTKTFEGNNDNLPSPASEELEFGFKEEDFVINTNDIVVSNIRMGGVDNSYYLRCYRLLGDYDFHWIDQDLLTDFVVDELGLPEDRLPAYLNFIKNSLIPKIEPAEPTYSDIPISDSSDEGDSYEGDSYEDDEDMASSVVHSDIEEGLDDLIAYTLKHDTERFKTFETKSLETKGKGKKKKLLIDDALALDTETLETLQSKFSKRIETKAKKRKAKEDFIDQENRNSNDMLKKYPYGLHIQNIKDEFESFLSRNNDRLTFPPLDPHGNKTVMKIAKHYNMKSSKIGKANHTSVVVEKIKKTKWSSPNYSLIDQLMRQRPVFMRIDIRRPREEQAAFERTKTIRGKFHVKEGEIVGQNAPEIGNENIGRRMLEKLGWKSGEGLGIQGNKGISEPIFAKIKKNRSGLRHSES
Work on B1 yielded a catalytic efficiency of Prp43 ATPase (kcat/KM), Pfa1FL versus Pfa1GP of 3 fold.
